Experimental data: patent US20240058465A1 (SUTRO BIOPHARMA, published 2024)
Where two headings read alike, the source gives them in different places.

Columns and labels:
Experiment in all cases: cell-based or functional assay
[1] = target: T1, receptor tyrosine kinase orphan receptor 1 (ROR1) on Ntera-2 cells (human, UniProt Q01973 30-937)
[2] = target: T1, receptor tyrosine kinase orphan …; remark: listed apart in the source
[3] = target: T1, receptor tyrosine kinase orphan …; remark: listed apart in the source

B1: Conjugate 46 (D04-Y180/F241/F404/K42-LP3) (antibody, human IgG1, kappa)
heavy: MEVQLVESGGGLVQPGGSLRLSCAASGFNISDYDIHWVRQAPGKGLEWVGGIDPADGSTDYADSVKGRFTISADTSKNTAYLQMNSLRAEDTAVYYCARDYGVYDYWGQGTLVTVSSASTKGPSVFPLAPSSKSTSGGTAALGCLVKDYFPEPVTVSWNSGALTSGVHTFPAVLQSSGLSLSSVVTVPSSSLGTQTYICNVNHKPSNTKVDKKVEPKSCDKTHTCPPCPAPELLGGPSVLFPPKPKDTLMISRTPEVTCVVVDVSHEDPEVKFNWYVDGVEVHNAKTKPREEQYNSTYRVVSVLTVLHQDWLNGKEYKCKVSNKALPAPIEKTISKAKGQPREPQVYTLPPSREEMTKNQVSLTCLVKGFYPSDIAVEWESNGQPENNYKTTPPVLDSDGSFLYSKLTVDKSRWQQGNVFSCSVMHEALHNHYTQKSLSLSPGK
light: MDIQMTQSPSSLSASVGDRVTITCRASQDVNTAVAWYQQKPGAPKLLIYSASFLYSGVPSRFSGSRSGTDFTLTISSLQPEDFATYYCQQHYTTPPTFGQGTKVEIKRTVAAPSVFIFPPSDEQLKSGTASVVCLLNNFYPREAKVQWKVDNALQSGNSQESVTEQDSKDSTYSLSSTLTLSKADYEKHKVYACEVTHQGLSSPVTKSFNRGEC
modifications: pAMF at K42, linked to LP3; pAMF at Y180, F241 and F404 (EU), each linked to LP3
cell killing EC50, NTERA-2 cells [1]: 0.045 nM | Cell Killing on Ntera2 Cells, EC50, With 1 uM 2188-D04 [2]: < 10 nM | Cell Killing on Ntera2 Cells, EC50, Without 2188-D04 [2]: 0.038 nM | cell killing EC50, NTERA-2 cells [3]: 0.042 nM | cell killing Span, NTERA-2 cells [3]: 51%

B2: Conjugate 47 (D04-Y180/F241/F404/K42-LP4) (antibody, human IgG1, kappa)
heavy: MEVQLVESGGGLVQPGGSLRLSCAASGFNISDYDIHWVRQAPGKGLEWVGGIDPADGSTDYADSVKGRFTISADTSKNTAYLQMNSLRAEDTAVYYCARDYGVYDYWGQGTLVTVSSASTKGPSVFPLAPSSKSTSGGTAALGCLVKDYFPEPVTVSWNSGALTSGVHTFPAVLQSSGLSLSSVVTVPSSSLGTQTYICNVNHKPSNTKVDKKVEPKSCDKTHTCPPCPAPELLGGPSVLFPPKPKDTLMISRTPEVTCVVVDVSHEDPEVKFNWYVDGVEVHNAKTKPREEQYNSTYRVVSVLTVLHQDWLNGKEYKCKVSNKALPAPIEKTISKAKGQPREPQVYTLPPSREEMTKNQVSLTCLVKGFYPSDIAVEWESNGQPENNYKTTPPVLDSDGSFLYSKLTVDKSRWQQGNVFSCSVMHEALHNHYTQKSLSLSPGK
light: MDIQMTQSPSSLSASVGDRVTITCRASQDVNTAVAWYQQKPGAPKLLIYSASFLYSGVPSRFSGSRSGTDFTLTISSLQPEDFATYYCQQHYTTPPTFGQGTKVEIKRTVAAPSVFIFPPSDEQLKSGTASVVCLLNNFYPREAKVQWKVDNALQSGNSQESVTEQDSKDSTYSLSSTLTLSKADYEKHKVYACEVTHQGLSSPVTKSFNRGEC
modifications: pAMF at K42, linked to LP4; pAMF at Y180, F241 and F404 (EU), each linked to LP4
cell killing EC50, NTERA-2 cells [1]: 0.007 nM | Cell Killing on Ntera2 Cells, EC50, With 1 uM 2188-D04 [2]: < 10 nM | Cell Killing on Ntera2 Cells, EC50, Without 2188-D04 [2]: 0.008 nM | cell killing EC50, NTERA-2 cells [3]: 0.005 nM | cell killing Span, NTERA-2 cells [3]: 96%
